Source: a protein production outcome set (Wang et al. 2014)

Assay: label from the status in PepcDB records
With “MARQSTKFSDKFLRALKPQEKPYDIREGDGFGVRVFPSGARSFFYMYHFDGKRRFLNLGKYPQLSLADARQKHRDAVSQHAKGIDPLAATQEQKRERREAITVADLIDEYVKNWAKVYKVERSATEDERALSKDVLPYWGKRKAKDIKRTDAIALLERIVRRGSPGQARNILKVGRKMYEFAIERKYVEANPFSRISKAVPATMPRTRSRVLTESEIKYIWSAIDKSAGSDETKRALKLILVTAQRPGEVIGMHRREIDGEWWTIPPERIKTEKDRTRSNSVGPQPHRVYLSPLALELIGDKDGYIFESPRGGAMDSKALSHVVHAAPLVPELVRDTEGHVFAGPCGPVAAKALMQLLEKEIAYPDKEKYYGLTRWTPHDLRRTARTRMSAINIPTRHAERVLNHTLPGIQKTYDLYRYDPQKKAALTKWAAYLEELLR” the protein production was “failed”. With “MARRSICEERRQQAGAGQPRGRCSDWQRRQRTLRPDATPMPADGRPRCSCLFSLLLSDPDLWKSWMSSQTAAERELAELLVESLNLEDVQPADIDPEAPLFNTGLGLDSIDALELALAISKRYGFQLRSDNDENRRIFASLRALSAHVQANKTV” the protein production was “failed”. With “MARSEGNRPRHRAVPQPSRIRKRLSRGVMTLVSVVALLMTGAGYWVAHGALGGITISQALTPEDPRSSGNNMNILLIGLDSRKDQEGNDLPWSVLKQLHAGDSDDGGYNTNTLILVHVGADGKVVAFSIPRDDWVPFTGVPGYNHIKIKEAYGLTKQYVAEQLANQGVSDRKELETRGREAARAATLRAVRSLTGVPIDYFAEINLAGFYDLAQTLGGVDVCLNHAVYDSYSGADFPAGRQRLNAAQALAFVRQRHGLDNGDLDRTHRQQAFLSSVMRELQDSGTFTNLDRLDNLMAVARKDVVLSAGWDEDLFRRMGDLAGGNVEFRTLPVVRYDNIDGQDVNIIDPTAIRAEVAAAFGSAPPTSQTAAAAKPNPSTVVDVVNAGSISGLASQVSGALLKRGYTAGQVRDRESGDPFTTAIEYGAGAETDAQNVADLLGIDAPNHPDPAVAPGHIRVTVDTNFSLPAPDEATAAATSTETSTYPLYGGGTTTDPTPDQGAPIDGGGVPCVN” the protein production was “failed”. For “MARSFSLAKNPLFWQVAIAGIILDQLSKLWVSQAMDPVGTTWPLWSGVFHFTYVLNTGAAFSAFRGGAGWLKWLSLAVSVGLIIFAGKVPLRKLEQLGYGCILAGAVGNGIDRFLFGHVIDFLDFRLINFPIFNLADVSINIGIAALLWASFFPVSSRKVD”, the protein production was “failed”. With “MARTFRSLRNFNYRVWASGAIVSNIGTWMQRTAQDWLVLTELTHHNATAVGIVMSLQFGPQMLLLPLTGYAADHFNRRKLLFITQTAMGLLALGLGLMTVTGLVRLWHVYVFALLLGCVTAFDAPARQTFVSDLVGEEDLPNAVALNSTSFNGARMIGPAITGLLIASIGTGWVFLINALSFVPVIGALRMLRQHELHLKPPAQRSRGSFLEGFRYVWKRPDLKAALFMLFLIGTFGLNFPIFISTMSVSAFHAGAGQYGLLSSTMAIGSVTGTLLAARRARPRMAILVGAATIFGVGCMFGALMPNAVLFGLTLAVIGASTQTFTTSTNSLVQISTEPAMRGRVIAILLAIALGTTPLGAPVVGWVADRFGPRWALGVGAASGFAAALVGLFYLMRNRNLRFYIETGRLRYSIDKPRQTAFMAAPAASVPNVVMSKAEDE” the protein production was “failed”. For “MARYRGAVERLERRFGVSLALKGERRLSGKSALDKRAYGPGQHGQRRAKTSDYGLQLKEKQKAKMMYGISEKQFRSIFVEANRLDGNTGENLIRLIERRLDNVVYRMGFATTRSSARQLVTHGHVLVDGKRLDIPSYFVRSGQKIEIKEKTKSNSQVVRAMELTAQTGIVPWIDVEKDKKYGIFTRYPEREEVVVPIEERLIVELYSK”, the protein production was “failed”. In the case of “MASADKLINTDVPEKDVFAFHFLQSLSNLRKQNPFDTPDQKNYRVRKIKKAAYVSMARAAGGSSRLWSRALLRRADKDDNKIVRFSRRKWKISSKRRRSNQRAPVVEEAAERLRNLVPGGGGMETSKLMEETAHYIKCLSMQVKVMQCLVDGLSPK”, the protein production is reported as “failed”. For “MASDPITTQEFSPRQNAVLDQALRLLVEGGEKALTTSGLARAANCSKESLYKWFGDRDGLLAAMITFQQSKVRTFEKAGDRVSAPQLADHLEVFAHDLLDVLAGDVSLALNRLAIGQASRDGSKLGDLLLERGRRQIDRRARGLIEAGRRSGYLRFDDAEEAYRSFYGLIVSDLHVRMLLGEAPDKDFSARAKKAVVAFLTLYGTEKVHSELGGKVA”, the protein production was “not failed”. With “MASDTPGFYMDKLNKYRQMHGVAITYKELSTSGPPHDRRFTFQVLIDEKEFPEAKGRSKQEARNAAAKLAVDILDNENKVDCHT” the protein production was “not failed”. With “MASEFDLIQRYFRRAHPSAVLGVGDDAALIQPSPGMELAVSADMLVANTHFYPNIDPWLIGWKSLAVNISDMAAMGAQPRWATLTIALPEADEDWISKFAAGFFACAAQFDIALIGGDTTRGPLTISVQIMGETPPGASLLRSTARADDDIWVSGPLGDAALALAAIQGRYPLSDTELAACGKALHQPQPRVVLGQALRGLAHSALDISDGLLADLGHILEHSQVGAEVWLKAIPKSEVVSAHSQEVAIQKMILSGGDDYELCFTASTQHRQQIADIGRQLSLDMAVIGRITDTQQLVIHGLDDAPLTLKEHGFDHFA” the protein production was “not failed”. In the case of “MASESSIDEKKKKAQVTQSNINKNTPQQLTDKDLFGNETTLAVSEEDIQAALDGDEFRVPLNSPVILVQSGNRAPETIMQEEMRKYYTVSTFSGIPDRQKPLTCNKNKDKNENEDVASAENMNWMQALRFVAAKGHQKAIIVYQDMLQTGKYDSALKSTVWSDYKNDKLTDAISLRYLVRFTLVDVATGEWATWSPVNYEYKVLPPLPDKNEASTTDMTEQQIMQLKQKTYKAMVKDLVNRYQLEHHHHHH”, the protein production is reported as “failed”. For “MASGSTQVKYLGIYQKMKQQILDGEYKINEKIPSSPILAEEFGVSVLTIKKALDLLVRDGYIIRRRGSGTVVQDWRQQEKARMIQTLTGTKAVYGSEVESKIIEFTIVGADEIIAEKLGISVGDFVYKIIRLRIIHSIPTIMEHTWMPIAVIPGVEASVLEESIYSYIQNKLGLKVGTSVVRVKGIRPDDKEKQFMNLTNQDFLMRVEQVAYLTDGRTFEYSYADHLPETFEFETVITAKSYKEA”, the protein production was “failed”. With “MASHELDYRILGESMQTVEIELDPGETVIAEAGAMNYMTGDIRFTARMGDGSDGSLLGKLWSAGKRKLGGESVFMTHFTNEGQGKQHVAFAAPYPGSVVAVDLDDVGGRLFCQKDSFLCAAYGTRVGIAFTKRLGAGFFGGEGFILQKLEGDGLVFVHAGGTLIRRQLNGETLRVDTGCLVAFTDGIDYDVQLAGGLKSMLFGGEGLLLTTLKGSGTVWLQSLPFSRLAGRIYDATFRAREEVRTNNG” the protein production was “not failed”. In the case of “MASHISLKQLKVFTTITQHKTLTAASDSLFLSKAAVSMALSELEKQIGHHLFDRVNNRLILNQEGQKLLPLADELLNRAKDIESIFDGDQALSGQLRIGASDTIGNQVAPYLLSEFRQQTNHRSQSLFISNSAQICDMLTDYELDIALIEGKTLHPELQSTQFSEDEMCVICAPDYPAAHEGPVNLTELENSEWILREAGSGSREFFMRVVAPRLEHWHEAFQLNTTEALINSVSAGLGLGCLSRLSAEPAIRDGRVKLLDMPLDMKRRFWLLVHKEKYQSPLLKTFIEFCQDWERPTNLPLGNKSAK”, the protein production is reported as “failed”. For “MASHIVGYPRMGPKRELKFALESFWDGKSSADDLQKVSADLRSDIWKQMSAAGIKYIPSNTFSHYDQVLDTTAMLGAVPSRYGFTSGEIGLDVYFSMARGNASVPAMEMTKWFDTNYHYIVPELGPEVKFSYASHKAVNEYKEAKALGVETVPVLVGPVSYLLLSKLAKGVDKSFDLLSLLPKILPVYKEVIAELKAAGASWIQLDEPLFVMDLEGHKLQAFSGAYAELESTLSGLNVLVETYFADIPAEAYKTLTSLKGVTAFGFDLVRGTKTIDLIKSGFPQGKYLFAGVVDGRNIWANDLAASLITLQSLEGVVGKDKLVVSTSCSLLHTAVDLINETKLDAEIKSWLAFAAQKVVEVDALAKALAGQTNESFFTANADALSSRRSSPRVTNESVQKAAAALKGSDHRRTTEVSARLDAQQKKLNLPILPTTTIGSFPQTVELRRVRREYKAKKISEEDYVKAIKEEIKKVVDIQEDLDIDVLVHGEPERNDMVEYFGEQLSGFAFTANGWVQSYGSRCVKPPVIYGDVSRPKPMTVFWSSTAQSMTKRPMKGMLTGPVTILNWSFVRNDQPRHETCYQIALAIKDEVEDLEKGGIGVIQIDEAALREGLPLRKAEHSFYLDWAVHSFRITNCGVQDSTQIHTHMCYSNFNDIIHSIIDMDADVITIENSRSDEKLLSVFREGVKYGAGIGPGVYDIHSPRIPSTDEIADRINKMLAVLEQNILWVNPDCGLKTRKYTEVKPALKAMVDAAKLIRSQLGSAK”, the protein production was “failed”. With “MASHLFTRSRISLLKTLKPNPFTSASPIRAISGTPFLSQDPLLATESTDHDPSNHQSTSTPLPPNPATGSPLYQENWRSPIPNTPSFNQSLVPLGFLNQAPAPRIRALSETLDMNSLLNMFADWTASQRWSDMKQLFEVWVRSLDKNGKPNKPDVNLYNHYLRANLMMGASAGDMLDLVAPMEEFSVEPNTASYNLVLKAMYQARETEAAMKLLERMLLLGKDSLPDDESYDLVIGMHFGVGKNDEAMKVMDTALKSGYMLSTSVFTECVRSCVAKGRTDTLVSIIERCKAVDRNKSLCPSWILCNYIAEVAIQEDNSKLAFYAFEFMFKWITRGEMARPSVIFSVDEGLVVAGLASAARTCSSSLVEGSWTILKQSLRGRKAANPASYIAKINAYASLGNLQKAFTSLHELESAYADSEKEVVEEMLSPFTSLYPLVVACSKKGFETLDEVYFQLESLSQGDTPYKSVAALNCIILGCANTWDLDRAYQTFEAISASFGLTPNIDSYNALLYAFGKVKKTFEATNVFEHLVSIGVKPDSRTYSLLVDAHLINRDPKSALTVVDDMIKAGFEPSRETLKKLRRRCVREMDDENDDQVEALAKKFQIRMGSENRRNMLFNIDYSRGRALNN” the protein production was “failed”. For “MASISNLIILLISFLIGWIILSIPVWLASKAVSRRSSFGNAMIVSLVSIVVYVVLSTFLHFIGAIIGIIIILLIIREIYNVGWGGAIVIGVLSLVIFVIIALILGALHLASLLI”, the protein production was “failed”. For “MASLISFWLFFALSLLQPQQRQFLASKPWQDWLLDGVSLGIQGAIIPLLQLLLVINFYSLIIPHWQHSFNLFAGGQFLLGFVAIDYVYYWSHRALHSKLLFPIHQVHHTVSQMDMVSCARNTFWSSLFLPYVWLNSLIIYLLHDARGYILAISCTYLLDLWRHSSLIINKKCWLHDCLNSWLILPQDHGLHHHQIGKGNFGANLKLWDKIHGTYLKNTLPNQLSISSGMGIKLELTLWQKLFWPLT”, the protein production was “failed”. For “MASLLPSTGRGENIAGKLLLLIVALLMCIGVVVVYSSGAGWAEQKFSDPQYFLWRQLTFAIAGMAVIFVVGAIDYHIFRKISKLFLFVSIGLLAILLLLKLAHVIHGAARWLGFGPLKFQASDLAKYAIIFHFSRLLSEKRAYIKDLHDGYYPMLVLLMIVVALVALEPNFSTASIIAIIGFTLMFIGGIRIKYLLATASLLIPIAAVFAIAAPYRVARLVSFGGGEKELSYQVRQALLGLGNGGLFGLGLGASKQRELYLPLSYNDFVFVIIGEEYGFIGALVILLLFSGLFACGIIIAKHAPDLFGRYVAIGVTFAIVFFAFINIAVACHLMPTTGVALPFISYGGTALLFNSLGIGLLVSISRYRKKVETIERAQALLESKGGSL”, the protein production was “failed”. With “MASLWFGLIASSALVIGAFVGVRFELPKRLLAILLSFAAGSLITALAFELFEDAYEQGGIVRAALGLLAGAIVFTALSALLDRWAQPGGKSTTKAADEIQGSPKLDTDAAASDKAATSASTRGAAGMALLAAVTLDGVPENLALGISLGEGSGGLALLAAIFVSNLPEALVGASSMKSQGRKAGPIMLLWSVCAVLLVAAVVLGAGPLSSAEPATISLPLAFAAGAVIASLADTLMPEAYEHGGPAVALSTAAGFVLSFTLSLA” the protein production was “failed”.
